The results in this text go back to US20150203577A1 (Chugai, published 2015).

Numbering of substitutions follows the chain as printed.

Sequences and labels used below:
T1: mouse FcγRIII extracellular domain, C-terminally His-tagged (mouse, UniProt P08508 31-215)
T1 construct: the whole entry is named; also called mFcγRIII; mFcgRIII
T1 chain: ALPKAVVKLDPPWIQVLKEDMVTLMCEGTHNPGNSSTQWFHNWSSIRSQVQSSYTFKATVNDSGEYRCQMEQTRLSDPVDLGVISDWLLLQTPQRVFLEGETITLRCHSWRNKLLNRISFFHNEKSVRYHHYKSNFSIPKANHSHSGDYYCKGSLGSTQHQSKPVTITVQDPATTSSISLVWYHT

T2: mouse FcγRII extracellular domain, C-terminally His-tagged (mouse, UniProt P08101 30-210)
T2 construct: the whole entry is named; also called mFcγRII; mFcgRII
T2 sequence: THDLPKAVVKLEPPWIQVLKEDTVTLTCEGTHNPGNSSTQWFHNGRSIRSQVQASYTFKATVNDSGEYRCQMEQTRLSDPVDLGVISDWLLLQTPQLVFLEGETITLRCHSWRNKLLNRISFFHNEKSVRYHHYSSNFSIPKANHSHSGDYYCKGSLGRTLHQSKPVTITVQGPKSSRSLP

B1: H237-MB533/MRAL-k0 (antibody, mouse IgG1, kappa)
heavy: QVQLQESGPGLVKPSETLSLTCAVSGHSISHDHAWSWVRQPPGEGLEWIGFISYSGITNYNPSLQGRVTISRDNSKNTLYLQMNSLRAEDTAVYYCARSLARTTAMDYWGEGTLVTVSSAKTTPPSVYPLAPGSAAQTNSMVTLGCLVKGYFPEPVTVTWNSGSLSSGVHTFPAVLQSDLYTLSSSVTVPSSTWPSETVTCNVAHPASSTKVDKKIVPRDCGCKPCICQPNEVEEVFIFPPKPKDVLTITLTPKVTCVVVDISKDDPEVQFSWFVDDVEVHTAQTQPREEQFNLTFRSVSELPIMHQDWLNGKEFKCRVDSDAFPAPIEKTISKTKGRPKAPQVYTIPPPKEQMAKDKVSLTCMITDFFPEDITVEWQWNGQPAENYKNTQPIMDTDGSYFVYSKLNVQKSNWEAGNTFTCSVLHEGLHNHHTEKSLSHSPGK
light: not shown
notes: copies: 2 + 2
B2: H237-MB536/MRAL-k0 (antibody, mouse IgG1, kappa)
heavy: B1 heavy with L294S, K330R
light: not shown
notes: copies: 2 + 2
B3: H237-MB534/MRAL-k0 (antibody, mouse IgG1, kappa)
heavy: B1 heavy with D322A, K330R
light: not shown
notes: copies: 2 + 2
B4: H237-MB535/MRAL-k0 (antibody, mouse IgG1, kappa)
heavy: B1 heavy with D320N, K330R
light: not shown
notes: copies: 2 + 2
B5: H237-MB537/MRAL-k0 (antibody, mouse IgG1, kappa)
heavy: B1 heavy with K330R
light: not shown
notes: also called M6537; copies: 2 + 2
B6: H237-MB515/MRAL-k0 (antibody, mouse IgG1, kappa)
heavy: B1 heavy with Q229E, E235M, L294S, D320N, D322A
light: not shown
notes: Template; copies: 2 + 2
B7: H237-MB543/MRAL-k0 (antibody, mouse IgG1, kappa)
heavy: B1 heavy with Q229E, E235M, L294S, D322A, K330R
light: not shown
notes: copies: 2 + 2
B8: H237-MB545/MRAL-k0 (antibody, mouse IgG1, kappa)
heavy: B1 heavy with Q229E, E235M
light: not shown
notes: copies: 2 + 2
B9: H237-MB542/MRAL-k0 (antibody, mouse IgG1, kappa)
heavy: B1 heavy with Q229E, E235M, L294S
light: not shown
notes: copies: 2 + 2
B10: H237-MB538/MRAL-k0 (antibody, mouse IgG1, kappa)
heavy: B1 heavy with Q229E, E235M, D320N, D322A
light: not shown
notes: copies: 2 + 2
B11: H237-MB541/MRAL-k0 (antibody, mouse IgG1, kappa)
heavy: B1 heavy with Q229E, E235M, D320N, D322A, K330R
light: not shown
notes: copies: 2 + 2
B12: H237-MB544/MRAL-k0 (antibody, mouse IgG1, kappa)
heavy: B1 heavy with Q229E, E235M, L294S, D320N, K330R
light: not shown
notes: copies: 2 + 2
B13: H237-MB548/MRAL-k0 (antibody, mouse IgG1, kappa)
heavy: B1 heavy with Q229E, E235M, L294S, K330R
light: not shown
notes: copies: 2 + 2
B14: H237-MB540/MRAL-k0 (antibody, mouse IgG1, kappa)
heavy: B1 heavy with Q229E, E235M, D320N
light: not shown
notes: copies: 2 + 2
B15: H237-MB547/MRAL-k0 (antibody, mouse IgG1, kappa)
heavy: B1 heavy with Q229E, E235M, D320N, K330R
light: not shown
notes: copies: 2 + 2
B16: H237-MB539/MRAL-k0 (antibody, mouse IgG1, kappa)
heavy: B1 heavy with Q229E, E235M, D322A
light: not shown
notes: copies: 2 + 2
B17: H237-MB546/MRAL-k0 (antibody, mouse IgG1, kappa)
heavy: B1 heavy with Q229E, E235M, D322A, K330R
light: not shown
notes: copies: 2 + 2
B18: H237-MB549/MRAL-k0 (antibody, mouse IgG1, kappa)
heavy: B1 heavy with Q229E, E235M, K330R
light: not shown
notes: copies: 2 + 2

One test concerns the target T1, mouse FcγRIII extracellular domain, …. Put plainly: SPR Biacore T200, KD ratio, template MB476. The source says:
(§1) The antibody H chain variable region used was the variable region H237 (SEQ ID NO: 1) of the H chain VH3-IgG1 of the anti-IL-6 receptor antibody Fv4-IgG1 described in WO2009/125825. The antibody L chain commonly used was the L chain MRAL-k0 (SEQ ID NO: 2) of the anti-IL-6 receptor antibody tocilizumab. H237-MB476/MRAL-k0 and H237-MB515/MRAL-k0 were used as templates to introduce new alterations. These variants were expressed and purified by the method of Reference Example 1 and evaluated for their binding to mFcγRII and mFcγRIII by the method of Reference Example 2 using Biacore T200.
(§2) Each altered antibody was analyzed for its interaction with each Fcγ receptor prepared above using Biacore T100 (GE Healthcare Japan Corp.), Biacore T200 (GE Healthcare Japan Corp.), Biacore A100, or Biacore 4000. The running buffer used was HBS-EP+ (GE Healthcare Japan Corp.). The assay temperature was set to 25° C. The sensor chips used were chips prepared by immobilizing Protein L (ACTIGEN or BioVision) onto Series S Sensor Chip CM5 (GE Healthcare Japan Corp.) or Series S Sensor Chip CM4 (GE Healthcare Japan Corp.) by the amine coupling method.
(§3) In order to calculate the KD value of each altered antibody for FcγR, kinetic analysis was conducted according to the following method: first, the antibody of interest was captured onto any of these chips and allowed to interact with mFcγR diluted with a running buffer. For the obtained sensorgram, the assay results were globally fit into the 1:1 Langmuir binding model using Biacore Evaluation Software to calculate an association rate constant ka (L/mol/s) and a dissociation rate constant kd (1/s). From these values, the dissociation constant KD (mol/L) was calculated.
With B1, the “relative mFcγRIII-binding activity (template = 1)” value was determined as 2.74 fold.
As to B2, the “relative mFcγRIII-binding activity (template = 1)” value was found to be 2.9 fold.
Same read-out and setting: next, B3: 12.8 fold; B4: 3.21 fold; B5: 3.36 fold.

The next test concerns the target T2, mouse FcγRII extracellular domain, …. The test is described as follows: SPR Biacore T200, KD ratio, template MB476.
Source text: as §1, §2, §3
As for B1, the “relative mFcγRII-binding activity (template = 1)” value worked out at 1.51 fold.
For B2, the “relative mFcγRII-binding activity (template = 1)” value was 1.52 fold.
Take B3: the “relative mFcγRII-binding activity (template = 1)” value was determined as 1.61 fold.
Turning to B4, the “relative mFcγRII-binding activity (template = 1)” value was found to be 1.61 fold.
As for B5, the “relative mFcγRII-binding activity (template = 1)” value turned out to be 1.95 fold.

Another test deals with T1, mouse FcγRIII extracellular domain, …. Put plainly: SPR Biacore T200, KD ratio, template MB515.
Source text: as §1, §2, §3
A general note: In SPR one partner is held on a chip, and binding of the other changes the refractive index at the surface.
In the case of B6, the “relative mFcγRIII-binding activity (template = 1)” value was 1 fold.
For the molecule B7, the “relative mFcγRIII-binding activity (template = 1)” value was 1.69 fold.
Consider B8, for which the “relative mFcγRIII-binding activity (template = 1)” value was 2.02 fold.
Same read-out and setting: next, B9: 2.57 fold; B10: 1.3 fold; B11: 2.48 fold.
Consider B12, for which the “relative mFcγRIII-binding activity (template = 1)” value came to 2.45 fold.
For the molecule B13, the “relative mFcγRIII-binding activity (template = 1)” value is 2.99 fold.
Still for that read-out and setting: next, B14: 2.15 fold; B15: 3.43 fold; B16: 1.45 fold.
In the case of B17, the “relative mFcγRIII-binding activity (template = 1)” value came to 4.28 fold.
Consider B18, for which the “relative mFcγRIII-binding activity (template = 1)” value turned out to be 4.11 fold.

Another test has as its target T2, mouse FcγRII extracellular domain, …. Put plainly: SPR Biacore T200, KD ratio, template MB515.
Source text: as §1, §2, §3
As to B6, the “relative mFcγRII-binding activity (template = 1)” value was 1 fold.
Still for that read-out and setting: next, B7: 1.42 fold; B8: 1.19 fold; B9: 2.8 fold.
Take B10: the “relative mFcγRII-binding activity (template = 1)” value is 0.63 fold.
The same measure, in the same setting: then B11, with 0.75 fold; and B12, with 2.01 fold.
On to B13, for which the “relative mFcγRII-binding activity (template = 1)” value is 2.6 fold.
As to B14, the “relative mFcγRII-binding activity (template = 1)” value turned out to be 1.09 fold.
On the same count and under the same terms, then B15, with 1.24 fold; and B16, with 0.77 fold; and B17, with 1.15 fold.
Same read-out and setting: then B18, with 1.53 fold.

A further test addresses T1, mouse FcγRIII extracellular domain, …. Put plainly: SPR Biacore T200, KD ratio.
Source text: as §1, §2, §3
For B6, the “relative mFcγRIII-binding activity (mIgG1 = 1)” value came to 1.3 fold.
For B7, the “relative mFcγRIII-binding activity (mIgG1 = 1)” value came out at 2.2 fold.
On the same count and under the same terms, then B8, with 2.7 fold; and B9, with 3.4 fold.
In the case of B10, the “relative mFcγRIII-binding activity (mIgG1 = 1)” value was 1.7 fold.
As to B11, the “relative mFcγRIII-binding activity (mIgG1 = 1)” value was determined as 3.3 fold.
As to B1, the “relative mFcγRIII-binding activity (mIgG1 = 1)” value was determined as 7.2 fold.
The same measure, in the same setting: then B12, with 3.2 fold; and B2, with 7.7 fold; and B3, with 33.8 fold.
Same read-out and setting: next, B13: 3.9 fold; B14: 2.8 fold.
Same read-out and setting: next, B15: 4.5 fold; B16: 1.9 fold; B17: 5.6 fold.
Regarding B4, the “relative mFcγRIII-binding activity (mIgG1 = 1)” value was found to be 8.5 fold.
The same measure, in the same setting: next, B18: 5.4 fold; B5: 8.9 fold.

The target of another test is T2, mouse FcγRII extracellular domain, …. Put plainly: SPR Biacore T200, KD ratio.
Source text: as §1, §2, §3
As for B6, the “relative mFcγRII-binding activity (mIgG1 = 1)” value was determined as 137 fold.
For the molecule B7, the “relative mFcγRII-binding activity (mIgG1 = 1)” value stood at 195 fold and the “relative mFcγRII-binding activity (template H237-MB515/MRAL-k0 = 1)” value is at least 1.4 fold.
With B8, the “relative mFcγRII-binding activity (mIgG1 = 1)” value came out at 163 fold.
For B9, the “relative mFcγRII-binding activity (H237-mIgG1/MRAL-k0 = 1)” value was at least 350 fold, the “relative mFcγRII-binding activity (mIgG1 = 1)” value is 384 fold and the “relative mFcγRII-binding activity (template H237-MB515/MRAL-k0 = 1)” value was at least 1.4 fold.
As for B10, the “relative mFcγRII-binding activity (mIgG1 = 1)” value stood at 86.2 fold.
As to B11, the “relative mFcγRII-binding activity (mIgG1 = 1)” value was 103 fold.
As for B1, the “relative mFcγRII-binding activity (mIgG1 = 1)” value was determined as 394 fold.
In the case of B12, the “relative mFcγRII-binding activity (mIgG1 = 1)” value is 276 fold and the “relative mFcγRII-binding activity (template H237-MB515/MRAL-k0 = 1)” value was at least 1.4 fold.
B2: the “relative mFcγRII-binding activity (mIgG1 = 1)” value amounted to 396 fold.
The same measure, in the same setting: then B3, with 421 fold.
In the case of B13, the “relative mFcγRII-binding activity (H237-mIgG1/MRAL-k0 = 1)” value is at least 350 fold, the “relative mFcγRII-binding activity (mIgG1 = 1)” value turned out to be 357 fold and the “relative mFcγRII-binding activity (template H237-MB515/MRAL-k0 = 1)” value was at least 1.4 fold.
In the case of B14, the “relative mFcγRII-binding activity (mIgG1 = 1)” value was found to be 149 fold.
On to B15, for which the “relative mFcγRII-binding activity (mIgG1 = 1)” value is 170 fold.
Still for that read-out and setting: next, B16: 105 fold.
The same measure, in the same setting: then B17, with 158 fold; and B4, with 422 fold.
On the same count and under the same terms, then B18, with 210 fold; and B5, with 510 fold.
